{
  "source": "paper PMC8389195",
  "about": "“Demyristoylation of the Cytoplasmic Redox Protein Trx-h2 Is Critical for Inducing a Rapid Cold Stress Response in Plants”",
  "target": "MBP-CBF1 (Arabidopsis thaliana, UniProt P93835 1-213)",
  "sequence (P93835 whole entry)": "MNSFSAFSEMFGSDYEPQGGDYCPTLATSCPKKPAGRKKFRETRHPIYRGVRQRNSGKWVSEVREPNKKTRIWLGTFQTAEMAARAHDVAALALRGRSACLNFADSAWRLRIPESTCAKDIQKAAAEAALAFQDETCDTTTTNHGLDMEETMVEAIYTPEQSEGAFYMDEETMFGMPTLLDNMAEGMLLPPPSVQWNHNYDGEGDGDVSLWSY",
  "test": "EMSA; NADPH, Trx reductase, Trx-h2 (reduced CBF1); EMSA kit (Thermo Fisher), poly(dI-dC) binding buffer, NADPH/Trx reductase/Trx-h2 system, 6% polyacrylamide gel; proteins dialyzed in 20 mM HEPES-NaOH pH 8.0; salt and temperature not stated",
  "settings": "protein: recombinant; tags: MBP (N-terminal, pMAL vector); blunt",
  "data": [
    {"binder": "COR15a promoter CRT/DRE probe (dsDNA) DNA 1: ATTTCATGGCCGACCTGCTTTTT DNA 2: AAAAAGCAGGTCGGCCATGAAAT", "values": [
      {"measurement": "binding result", "result": "binds"}
    ]}
  ]
}
